This is an account of results in patent publication US20230348603A1 (VERSEAU THERAPEUTICS, published 2023).

Where a chain is given by its changes, count along the chain named. Names may count otherwise.

To fix the notation:
T1: Cynomolgus Monkey VSIG4-L-His (cynomolgus monkey)
T1 construct: ECD with His tag; also called cyVSIG4-L; cyno VSIG4-L-His
T1 chain: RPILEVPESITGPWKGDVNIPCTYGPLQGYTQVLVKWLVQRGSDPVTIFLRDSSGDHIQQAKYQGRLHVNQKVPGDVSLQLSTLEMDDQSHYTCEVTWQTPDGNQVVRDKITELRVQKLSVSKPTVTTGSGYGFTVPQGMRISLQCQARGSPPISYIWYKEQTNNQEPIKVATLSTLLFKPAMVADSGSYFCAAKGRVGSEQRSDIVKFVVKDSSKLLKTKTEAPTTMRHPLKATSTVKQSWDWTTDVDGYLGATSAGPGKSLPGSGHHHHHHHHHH

T2: Human VSIG4-L-His (human, UniProt Q9Y279 20-283)
T2 construct: long isoform ECD with His tag; also called hVSIG4-L
T2 sequence: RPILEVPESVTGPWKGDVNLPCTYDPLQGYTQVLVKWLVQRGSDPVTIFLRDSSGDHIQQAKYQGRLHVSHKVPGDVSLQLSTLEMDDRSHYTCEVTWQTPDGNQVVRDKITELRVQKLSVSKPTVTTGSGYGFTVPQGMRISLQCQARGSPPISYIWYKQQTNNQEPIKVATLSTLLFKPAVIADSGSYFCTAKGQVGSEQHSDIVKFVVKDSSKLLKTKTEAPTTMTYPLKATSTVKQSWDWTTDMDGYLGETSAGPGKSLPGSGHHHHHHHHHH

T3: Human VSIG4-S-His (human, UniProt Q9Y279 20-283)
T3 construct: short isoform ECD with His tag; also called hVSIG4-S; VISG4-S-His
T3 sequence: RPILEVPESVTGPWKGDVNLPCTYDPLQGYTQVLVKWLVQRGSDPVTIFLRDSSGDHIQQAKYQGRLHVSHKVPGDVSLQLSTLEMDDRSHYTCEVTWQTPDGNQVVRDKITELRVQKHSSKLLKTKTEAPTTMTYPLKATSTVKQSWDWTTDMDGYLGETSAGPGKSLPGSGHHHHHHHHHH

B1: 16E03 mouse Fab (periplasmic extract) (Fab, V domains shown)
VH: QVQLQQSGAELARPGASVKMSCKASGYTFTSYTMHWIKQRPGQGLEWIGYINPSSGHTYYNQKFKDKATLTPDKSSSTAYMQLTSLTSEDSAVYYCARRIPTAYAMDYWGQGTSVTVSS
VL: EIQMTQSHKFMSTSVGDRVSITCKASQDVGTAVAWYQQKPGQSPKLLIYWASTRHTGVPDRFTGSGSGTDFTLTISNVQSEDLADYFCQQYSSYPLTFGAGTKLELK
notes: mouse Fab with C-terminal His6-c-myc tag
B2: 15C04 mouse Fab (periplasmic extract) (Fab, V domains shown)
VH: QIQLQESGPSLVRPSQTLSLTCSVTGDSITSGYWNWIRKFPGDKLEYLGYISYSGFTYYNPSLKSRISITRDTSKNQYYLQLNSVTTEDTATYYCASSYYGSSLGFPYWGQGTLVTVSA
VL: DVVMTQTPLSLPVSLGDQASISCRSSQSLVHSNGNTYLHWYLQKPGQSPKLLIYKVSNRFSGVPDRFSGSGSGTDFTLKISRVEAEDLGVYFCSQSTHVPWTFGGGTKLEIK
notes: as for B1
B3: 1H7.C7 murine hybridoma antibody (antibody, V domains shown)
VH: EVQLVESGGGLVMPGGSRRLSCAASGFTFSDSGMYWVRQAPEKGLEWIAYISSGSDTLYYAATVKGRFTISRDNAKNTLFLQMTSLRSEDTAIYYCAKRNFYGYDVMDYWGQGTSVTVSS
VL: DIVMTQSHKFMSTSVGDRVSITCKASQDVSNVVAWYQQKPGQSPKLLIYSASYRYTGVPDRFAGSGSGTDFTFTISSVQAEDLAVYYCQQHYSTPWTFGGGTKLEIK
notes: murine IgG purified from hybridoma supernatant
B4: 9A10.C4 murine hybridoma antibody (antibody, V domains shown)
VH: EVQLVESGGALVQPGGSLKLSCVASGFSFSNCVMSWVRQSPEKRLEWVATIGSDGSYSYYQDNVKGRFTVSRDNAKNTLYLQMSSLGSEDTALYYCGRHIYGYDVVDYWGQGTSLTVSS
VL: B3 VL with S20T, Y36F, Y55F, T56G, A63T, S93D, W96L, G100T, K103T, I106L
notes: as for B3
B5: 10E8.B6 murine hybridoma antibody (antibody, V domains shown)
VH: EVQLQQSGPELMKPGDSVKMSCKASGYTFTDYYMDWVKQSHGKSLEWIGYIYPNIDFTTYNQKFKGKATLTVDKSSNTAYMELHSLTSEDSAVYYCTRRDLPLHGSAYYFDYWGQGTTLTVSS
VL: DIVMSQSPSSLAVSAGEKVTMSCKSSQSLLNSRTRKNYLAWYQQKPGQSPKLLIYWASTRESGVPDRFTGSGSGTDFTLTISSVQAEDLAVYYCKQSYDLFTFGSGTKLEIK
notes: as for B3
B6: 14F8.H6 murine hybridoma antibody (antibody, V domains shown)
VH: EVHLVESGGALVKPGGSLKLSCTASGFTFSNSVMSWIRQTPEKRLEWVATIGSGGTYIYYPDSVKGRFTISRDNSKNTLFLQMTSLRSEDTALYYCARHIYGYDVVDYWGQGTTLTVST
VL: DIVMTQSHRFMSTSVGDRVSITCKASHDVSNVVAWYQQKPGQSPELLIYSASYRYTGVPARFTGSGSGTDFTFTISSVQAEDLAVYFCQQHFTTPLTFGAGTSLEVR
notes: as for B3
B7: 13E11.A4 murine hybridoma antibody (antibody, V domains shown)
VH: EVQLVESGGALVKPGGSLKLSCVASRFNLNNCVMSWIRQTPEKRLEWVATIDSGSIYTYYPDSVKGRFTISRDNAKNTLYLQMSSLRSEDTAVYYCVRHIYGYDVVDNWGQGTTLTVAS
VL: DIVMTQSHKFMSTSVGDNVSITCKASQYVSNTVAWYQQKPGQSPKLLIYSASYRNTGVPDRFTGSGSGTNFTFTISNMQAEDLAFYYCQQHYTSPLTFGAGTKLELK
notes: as for B3
B8: 1C6.D6 murine hybridoma antibody (antibody, V domains shown)
VH: QVQLQQPGAEMVRPGTSVKLSCKASGYTFTSYWMHWVKQRPGQGLEWIGKIDPSHNKTHYIQKFEDKATLTVDKSSSTAYMHLNSLTSEDSAVYYCVTWDGDFLYWGQGTLVTVSA
VL: NIVLTQSPASLTVSLGQRATISCRASESVDSYGNSFMHWYQQKPGQPPKLLIYITSNLQSGVPARFSGGGSRTDFTLTIDPVEADDAATYYCQQNNEDPWTFGGGTKLEIK
notes: murine IgG purified from hybridoma supernatant; also called 1C6.D6b
B9: 16F6.E1 murine hybridoma antibody (antibody, V domains shown)
VH: QVQLQQPGAEMVRPGASLKLSCKASGYTFTSYWMHWVKQRPGQGLEWIGKIDPSKNTTHYNQNFRDKATLTVDRSSSTAYMQLNSLTSEDSAVYFCVTWDGDFTYWGQGTLVTISA
VL: B8 VL with A9P, T12A, I54L, T55A, Q59E, G69S, Y91F, Q93H
notes: murine IgG purified from hybridoma supernatant; also called 16F6.H6
B10: 5D2.C8 murine hybridoma antibody (antibody, V domains shown)
VH: EVKLVESGGGLVKPGGSLKLSCAVSGFTFSNSAMSWVRQTPAKRLEWVAYISISGDNTYYPDSVKGRFTISRDNAKNTLYLQMSSLRSEDTAMYYCARRGYDYDGFTHWGQGTLVTVSA
VL: DILLTQSPAILSVSPGERVSFSCRASQNIGTSIHWYQQRTNGSPRLLIKYASQSISGIPSRFSGSGSGTDFTLSINSVESEDIADYYCQQSYSWPLTFGTGTQLELK
notes: as for B3
B11: EU103.2 anti-VSIG4 antibody, human IgG4 (S228P) kappa (antibody, V domains shown)
VH: QVQLQESGPGLVKPSQTLSLTCSFSGISLTTSGMGVGWIRQPPGKGLEWLADIFWDDNKYYNPSLKSRVTISVDTSKNQFSLKLSSVTAADTAVYYCVRVYYKNDGYFDVWGQGTLVTVSS
VL: EIVMTQSPATLSVSPGERATLSCRASKSVTTSGYSFMHWYQQKPGQAPRLLIYLASNLEPGIPARFSGSGSGTEFTLTISSLQSEDFAVYYCQHSRELPYTFGQGTKLEIKR
notes: variable regions from U.S. Pat. Publ
B12: A1 anti-VSIG4 antibody, human IgG4 (S228P) kappa (antibody, V domains shown)
VH: QVTLKESGPTLVKPTQTLTLTCTFSGISLTTSGMGVGWIRQPPGKALEWLADIFWDDNKYYNPSLKSRLTITKDTSKNQVVLTMTNMDPVDTATYYCVRVYYKNDGYFDVWGKGTTVTVSS
VL: DIVLTQSPLSLPVTLGQPASISCRASKSVTTSGYSFMHWYQQRPGQSPRLLIYLASNLEPGVPDRFSGSGSGTDFTLKISRVEAEDVGVYYCQQSGELPYTFGQGTKLEIKR
notes: as for B11
B13: A2 anti-VSIG4 antibody, human IgG4 (S228P) kappa (antibody, V domains shown)
VH: B12 VH
VL: B12 VL with S80F
notes: as for B11
B14: 16F6.E1 mouse/human chimeric IgG4 (S228P) kappa (antibody, V domains shown)
VH: B9 VH
VL: NIVLTQSPPSLAVSLGQRATISCRASESVDSYGNSFMHWYQQKPGQPPKLLIYLASNLESGVPARFSGSGSRTDFTLTIDPVEADDAATYFCHQNNEDPWTFGGGTKLEIKR

In general, Kd refers to the concentration at which binding is half-saturated. The koff is the rate constant with which the complex falls apart.

T4 sequence (chain, as listed by the source limits assumed): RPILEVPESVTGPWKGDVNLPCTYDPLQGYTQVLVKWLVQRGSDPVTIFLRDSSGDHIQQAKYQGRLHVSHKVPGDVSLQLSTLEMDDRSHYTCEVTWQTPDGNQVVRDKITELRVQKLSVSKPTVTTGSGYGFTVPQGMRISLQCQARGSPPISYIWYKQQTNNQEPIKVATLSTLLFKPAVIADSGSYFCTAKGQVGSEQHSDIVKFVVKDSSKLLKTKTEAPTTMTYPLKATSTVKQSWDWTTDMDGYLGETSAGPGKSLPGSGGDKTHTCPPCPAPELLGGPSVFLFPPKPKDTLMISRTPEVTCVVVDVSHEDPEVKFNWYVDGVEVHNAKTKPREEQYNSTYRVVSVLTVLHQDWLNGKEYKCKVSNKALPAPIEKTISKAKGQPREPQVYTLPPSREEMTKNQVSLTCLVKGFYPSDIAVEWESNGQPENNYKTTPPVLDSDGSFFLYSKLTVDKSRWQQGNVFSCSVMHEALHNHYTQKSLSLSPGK

One assay addresses T4, Human VSIG4-L-Fc (human).
T4 construct: also called hVSIG4-L-Fc; hVSIG4-L
The assay is described as follows: ELISA, Fab P.E. 1:5 on coated antigen.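 Also: mouse Fab P.E. samples in 1% skimmed milk PBS, bound to antigen-coated wells for 1 h at room temperature, read as absorbance.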 Background: An ELISA detects its analyte on a solid surface through an enzyme-linked reagent.
Experimental: (§1) Coated microplates were blocked with dried skimmed milk at 4% in PBS. P.E. samples of the mouse unique Fab sequences were diluted 1:5 in assay buffer (1% dried skimmed milk in PBS), and 100 μl of diluted sample was added onto the coated wells and incubated for one hour at room temperature. […] Optical density (OD) at 450 nm was determined using a standard absorbance microplate reader.
With B1, the “ELISA OD450” value was found to be 4.43 OD450.
Consider B2, for which the “ELISA OD450” value worked out at 4.21 OD450.

The target of a further assay is T5, Human VSIG4-S-Fc (human).
T5 construct: short isoform ECD fused to human Fc1; also called hVSIG4-S
T5 sequence (chain, as listed by the source limits assumed): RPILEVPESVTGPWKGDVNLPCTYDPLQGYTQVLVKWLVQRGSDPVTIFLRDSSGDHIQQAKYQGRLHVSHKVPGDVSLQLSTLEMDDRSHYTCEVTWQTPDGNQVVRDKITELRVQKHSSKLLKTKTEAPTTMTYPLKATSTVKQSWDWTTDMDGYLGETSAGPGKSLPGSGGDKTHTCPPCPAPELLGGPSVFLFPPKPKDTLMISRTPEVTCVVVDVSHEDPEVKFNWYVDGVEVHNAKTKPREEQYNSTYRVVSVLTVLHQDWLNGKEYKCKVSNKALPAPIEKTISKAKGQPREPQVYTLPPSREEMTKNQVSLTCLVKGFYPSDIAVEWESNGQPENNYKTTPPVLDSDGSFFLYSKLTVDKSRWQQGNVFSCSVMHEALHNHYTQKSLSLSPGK
The assay is described as follows: ELISA, Fab P.E. 1:5 on coated antigen.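 Also: mouse Fab P.E. samples in 1% skimmed milk PBS, bound to antigen-coated wells for 1 h at room temperature, read as absorbance.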
Experimental: as §1
In the case of B1, the “ELISA OD450” value turned out to be 4.3 OD450.
As to B2, the “ELISA OD450” value was 0.06 OD450.

The target in another assay is T1, Cynomolgus Monkey VSIG4-L-His. The assay can be described thus: ELISA, Fab P.E. 1:5 on coated antigen.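 Also: mouse Fab P.E. samples in 1% skimmed milk PBS, bound to antigen-coated wells for 1 h at room temperature, read as absorbance.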
Experimental: as §1
For the molecule B1, the “ELISA OD450” value was 0.21 OD450.
For B2, the “ELISA OD450” value is 0.05 OD450.

A further assay has as its target T2, Human VSIG4-L-His. The assay can be described thus: BLI (Octet), mouse IgG on AMC sensor, antigen 100 nM.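 Also: octet Red384 biolayer interferometry with immobilized mouse hybridoma antibodies, 300 s association then 300 s dissociation at 30 °C, isotype-control reference subtraction, 1:1 global fit.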
Experimental: (§2) The binding affinity of murine hybridoma antibodies was determined by biolayer interferometry (BLI), using a ForteBio Octet® Red384 system. […] Biosensors were rehydrated prior to the assay in kinetics buffer for 10 minutes and then equilibrated in kinetics buffer for 60 seconds. Antibody was then immobilized for 300 seconds followed by a 120 second baseline wash in fresh kinetics buffer, 300 second analyte association, and 300 second dissociation in the same buffer wells as the baseline wash step. All assay steps occurred at 30° C. with an acquisition rate of 5.0 Hz. Processing parameters included reference subtraction, with mouse IgG1 or mouse IgG2a used as an isotype control for reference sensor subtraction. Y-axis data was aligned to the average baseline step for the last 5 seconds and all steps were inter-step corrected to the start of the dissociation step. High frequency noise was removed using Savitzky-Golay filtering and final fitting was a 1:1 global binding model to both association and dissociation.
In turn, B3 registered a Kd of 6.83 nM.
In turn, B4 gave a Kd of 0.965 nM.
The same measure, in the same setting: to B5 belongs 2.13 nM.
For the molecule B6, binding was put at a Kd of 1.72 nM.
B7: the Kd came out at 1.76 nM.
Consider B8, for which the Kd worked out at 1.03 nM.
B9 registered a Kd of 0.472 nM.
B10 came in with a Kd of 0.475 nM.

The next assay has as its target T3, Human VSIG4-S-His. Described as above.
Experimental: as §2
B3: the Kd was found to be 21.5 nM.
B4 showed a Kd of 5.16 nM.
Take B5: binding was characterised by a dissociation constant (Kd) of 6.95 nM.
Turning to B6, the Kd was determined as 5.86 nM.
Same read-out and setting: to B7 belongs 4.99 nM; to B8, 3.29 nM.
The same measure, in the same setting: as for B9, the figure is 2.87 nM; as for B10, 0.505 nM.

In another assay the target is T1, Cynomolgus Monkey VSIG4-L-His. The assay is described as above.
Experimental: as §2
As for B3, binding was put at a Kd of 6.45 nM.
As for B4, the Kd amounted to 1.23 nM.
B5 displayed a dissociation constant (Kd) of 1.56 nM.
B6 showed a Kd of 2.02 nM.
On the same count and under the same terms, as for B7, the figure is 1.4 nM; as for B8, 1.13 nM; as for B9, 0.802 nM.
In the case of B10, the Kd was found to be 0.435 nM.

The target in a further assay is T2, Human VSIG4-L-His. The assay is described as follows: SPR (Biacore T200), Fab P.E. 1:5 over immobilised antigen. (In SPR one partner is held on a chip, and binding of the other changes the refractive index at the surface.)
Experimental: Off-rate values of the mouse unique Fab clones were determined using surface plasmon resonance (SPR) in Biacore™ T200 equipment (GE Healthcare, Chicago, IL). […] The immobilization was performed in accordance with a method provided by Biacore and by using the NHS/EDC kit (GE Healthcare, Chicago, IL). […] Sixty μl of Fab P.E. samples, diluted 1:5 in HBS-EP+ assay buffer (0.1 M HEPES, 1.5 M NaCl, 0.03 M EDTA and 0.5% v/v Surfactant P20), were injected and passed through the flow cells at a flow rate of 30 μl/min. After binding of the samples to VSIG4 protein, the off-rate was monitored for a period of five minutes. The flow cell surface was regenerated by a double injection of 10 μl of 1 mM glycine at pH 1.5 in 1 M sodium chloride at 30 μl/min. Off-rate analysis was done using the BIAevaluation software (GE Healthcare, Chicago, IL) and using a 1:1 dissociation kinetic fit curve.
Consider B1, for which the koff worked out at 0.013 s⁻¹.
Turning to B2, the koff turned out to be 0.0019 s⁻¹.

A further assay deals with T4, Human VSIG4-L-Fc. The assay can be described thus: BLI cross-blocking on hVSIG4-L-Fc, competitor 12A12 first.
Experimental: (§3) All assay steps occurred at 30° C. with an acquisition rate of 5.0 Hz.
B11: the “binding signal (nm shift)” value amounted to 0.3 nm.
Regarding B12, the “binding signal (nm shift)” value worked out at 0.57 nm.
As for B13, the “binding signal (nm shift)” value is 0.6 nm.
Still for that read-out and setting: to B14 belongs 0.09 nm.

For another assay, the target named is T4, Human VSIG4-L-Fc. The assay is described as follows: BLI cross-blocking on hVSIG4-L-Fc, competitor 14C05 first.
Experimental: as §3
With B11, the “binding signal (nm shift)” value came to 0.29 nm.
Take B12: the “binding signal (nm shift)” value came out at 0.55 nm.
Regarding B13, the “binding signal (nm shift)” value was determined as 0.57 nm.
On the same count and under the same terms, as for B14, the figure is 0.56 nm.
